The values that follow come from paper doi:10.1101/2024.06.26.600905 (bioRxiv, 2024).

Where no end group is shown, it is not given here. [ ]: non-standard residue; d: D form. pY = N[C@@H](Cc1ccc(OP(=O)(O)O)cc1)C(=O)O; TOTD membrane = not defined here; pS = N[C@@H](COP(=O)(O)O)C(=O)O

T1 sequence (O95747 433-527): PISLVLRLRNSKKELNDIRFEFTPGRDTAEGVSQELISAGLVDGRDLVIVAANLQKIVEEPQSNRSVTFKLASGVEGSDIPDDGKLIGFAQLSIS
Chain of His6-OSR1 CCT (human OSR1 433-527) (from UniProt O95747 433-527) (domain or fragment) (O95747 433-527): as above

The first experiment concerns the target T1, His6-OSR1 CCT (human OSR1 433-527) (human, UniProt O95747 433-527). The experiment is described as follows: fluorescence polarisation.
As for H-SAGRRFIVSPVPE-OH [hWNK1 1253-1265 wild type peptide NH3+-SAGRRFIVSPVPE-COO-], the Ki stood at 5.1 µM. Regarding SAGARFIVSPVPE [hWNK1 1253-1265 peptide, first arginine of RRF to alanine], the “fold decrease in affinity relative to wild type” value is ~1.5 fold. The same measure, in the same setting: to SAGHHFIVSPVPE [hWNK1 1253-1265 peptide, arginines replaced with histidine-histidine] belongs ~7 fold. As to SAGAKFIVSPVPE [hWNK1 1253-1265 peptide, arginines replaced with alanine-lysine], the binding result is reported as “binds”.

SAAARFIVSPVPE [hWNK1 1253-1265 peptide, -3 glycine and -2 arginine to alanine-alanine]: the binding result was “binds”. Same read-out and setting: to SAVARFIVSPVPE [hWNK1 1253-1265 peptide, -3 glycine and -2 arginine to valine-alanine] belongs “binds”. Same read-out and setting: for SAGKAFIVSPVPE [hWNK1 1253-1265 peptide, arginines replaced with lysine-alanine] the value was “binds”. On to SAGHAFIVSPVPE [hWNK1 1253-1265 peptide, arginines replaced with histidine-alanine], for which the “fold decrease in affinity relative to wild type” value is 11 fold. Regarding SAGKKFIVSPVPE [hWNK1 1253-1265 peptide, arginines replaced with lysine-lysine], the affinity, expressed as Ki, was 16.3 µM. Consider SAGRAFIVSPVPE [hWNK1 1253-1265 R1257A peptide SAGRAFIVSPVPE], for which the “fold decrease in affinity relative to wild type” value is ~3.1 fold.

On to SAGAHFIVSPVPE [hWNK1 1253-1265 peptide, arginines replaced with alanine-histidine], for which the binding result is on record as “binds”. The same measure, in the same setting: to LRRRNFKVMI[pY]QD [p-Tyr156 Cavin1 peptide (Cavin1 146-158)] belongs “binds”; to LRRRNFKVMIYQD [Cavin1 146-158 motif peptide], “binds”. For QLVGRFQVTSSKE [hWNK4 1012-1024 wild type peptide QLVGRFQVTSSKE], the Ki came to 12.9 µM. As for QLVGRFQITSSKE [hWNK4 1012-1024 peptide, valine to isoleucine at the +2 position], the binding result was “binds”. Same read-out and setting: to QLVGRFQVASSKE [hWNK4 1012-1024 peptide, threonine to alanine at the +3 position] belongs “binds”; to QLVGRFQLTSSKE [hWNK4 1012-1024 peptide, valine to leucine at the +2 position], “binds”. Same read-out and setting: for QLVSRFQVTSSKE [hWNK4 1012-1024 peptide, glycine to serine at the -2 position] the value was “binds”; for QLVGRFAVTSSKE [hWNK4 1012-1024 peptide, glutamine to alanine at the +1 position], “binds”. In the case of SAGRRFIV[pS]PVPE [hWNK1 1253-1265 peptide phosphorylated on serine at the +3 position], the “fold decrease in affinity relative to wild type” value is ~2.5 fold. Consider SAGRRFIVSAAPE [hWNK1 1253-1265 peptide, proline and valine to alanines at +4/+5], for which the binding result is listed as “binds”.

The target of a further experiment is His6-SPAK CCT (mouse SPAK 459-556) (mouse) (UniProt Q9Z1W9). Nature of the experiment: fluorescence polarisation. A general note: In fluorescence polarisation assays a small probe gives low polarisation when free and higher when bound to something large.
In the case of H-SAGRRFIVSPVPE-OH [hWNK1 1253-1265 wild type peptide NH3+-…-COO-], the Ki stood at 2.5 µM.

Regarding SAGRRFIV[pS]PVPE [hWNK1 1253-1265 peptide phosphorylated on serine at the +3 position], the fold decrease in affinity relative to wild type amounted to 2.5 fold.

The target is the same in a further experiment. The experiment is described as follows: fluorescence polarisation. The source holds these as a separate data set.
With hWNK1 1253-1265 R1257A peptide …, the fold decrease in affinity relative to wild type is 3.1 fold. Molecule hWNK4 1012-1024 wild type peptide … displayed a Ki of 7.2 µM. For SAGARFIVSPVPE [hWNK1 1253-1265 peptide, first arginine of RRF to alanine], the fold decrease in affinity relative to wild type worked out at 1.5 fold. Still for that read-out and setting: to SAGHHFIVSPVPE [hWNK1 1253-1265 peptide, arginines replaced with histidine-histidine] belongs 7 fold. SAGHAFIVSPVPE [hWNK1 1253-1265 peptide, arginines replaced with histidine-alanine] gave a fold decrease in affinity relative to wild type of 11 fold. The molecule SAGKKFIVSPVPE [hWNK1 1253-1265 peptide, arginines replaced with lysine-lysine] displayed a Ki of 4.2 µM.

A further experiment concerns the target NH3+-NLVGRF-[DAP-FAM]-VSPVPE-COO- fluorescent probe peptide (human). The experiment is described as follows: fluorescence polarisation.
On to “His6-OSR1 CCT (human OSR1 433-527) (from UniProt O95747 433-527) (domain or fragment)”, for which the Kd amounted to 1.5 µM.

With “His6-SPAK CCT (mouse SPAK 459-556) (from UniProt Q9Z1W9 459-556) (domain or fragment)”, the Kd came to 0.67 µM.

With “purified SPAK CCT domain D477Q (domain or fragment)”, the fold decrease in affinity relative to wild type is 50 fold.

The target in another experiment is T1, His6-OSR1 CCT (human OSR1 433-527). Nature of the experiment: peptide or protein array.
As for Ac-QLVGRFQVTSSKE-{TOTD membrane} (reading uncertain) [hWNK4 1012-1024 wild type peptide QLVGRFQVTSSKE on the peptide array membrane], the binding result is listed as “binds”.

In general, Ki refers to the equilibrium dissociation constant of an inhibitor or competing ligand from its target. A high value points to a looser hold on the target. The Kd is a measure of binding affinity in units of concentration. A lower Kd goes with a tighter complex.
